Assay results as given in the supplement of paper PMC7125110.
± gives the standard error. Fewer inactive variants are shown than the library holds.

B1: glmS ribozyme (parent)
chain: AUAAAAGCGCCAGAACUACAGAAAUGUAGUUGACGAGGAGGAGGUUUAUCGAAUUUUCGGCGGAUGCCUCCAAA

What was measured:
Conditions in all cases: with glucosamine-6-phosphate
glucosamine-6-phosphate [1] = variants of: B1; assay: self-cleavage kobs at 40 uM GlcN6P; higher = faster cleavage; RNA array
How it was run: (§1)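 Barcoded ribozyme variants on sequenced MiSeq chips were transcribed in situ by E. coli RNA polymerase and followed at 37 °C through a hybridised Cy3 probe. Glucosamine-6-phosphate at 40 μM to 10 mM in HEPES/KCl/Mg(OAc)2 buffer was flowed in, and tiles were imaged over ~14 h. Signals were normalised to baseline and to non-cleaving reference variants, and per-tile medians were fit to one- or two-exponential decays to give kobs. Weighted Michaelis–Menten fits across concentrations gave kcat and KM.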

glucosamine-6-phosphate [2] = variants of: B1; assay: self-cleavage kobs at 160 uM GlcN6P; higher = faster cleavage; RNA array
How it was run: as §1

glucosamine-6-phosphate [3] = variants of: B1; assay: self-cleavage kobs at 640 uM GlcN6P; higher = faster cleavage; RNA array
How it was run: as §1

glucosamine-6-phosphate [4] = variants of: B1; assay: self-cleavage kobs at 10000 uM GlcN6P; higher = faster cleavage; RNA array
How it was run: as §1

glucosamine-6-phosphate [5] = variants of: B1; assay: self-cleavage kobs at 2500 uM GlcN6P; higher = faster cleavage; RNA array
How it was run: as §1

Row | Variant | self-cleavage kobs at 40 uM GlcN6P (glucosamine-6-phosphate [1]) [s⁻¹] | self-cleavage kobs at 160 uM GlcN6P (glucosamine-6-phosphate [2]) [s⁻¹] | self-cleavage kobs at 640 uM GlcN6P (glucosamine-6-phosphate [3]) [s⁻¹] | self-cleavage kobs at 10000 uM GlcN6P (glucosamine-6-phosphate [4]) [s⁻¹] | self-cleavage kobs at 2500 uM GlcN6P (glucosamine-6-phosphate [5]) [s⁻¹]
1 | AUAAAAGCUCCAGAACUACAGAAAUGUAGUUGACGAGGACGAGGUUUAUCGAAUUUUCGGCGGAUGCCUCCAAA [G9U G40C] | < 1e-05 | < 1e-05 | < 1e-05 | < 1e-05 | 
2 | AUAAAAGCGCCAGAACUACAGAAAUGUAGUUGACGAGGAGGAGGUUGAUCAAAUUUUCGGCGGAUGCCUCCAAA [U47G G51A] | < 1e-05 |  |  |  | 
3 | AUAAAAGUGCCAGAACUACAGAAAUGUAGUUGACGAGGAGGAGGUUUAUCGAAAUUUCGGCGGAUGCCUCCAAA [C8U U54A] | < 1e-05 | < 1e-05 | < 1e-05 | < 1e-05 | < 1e-05
4 | AUAAAAGUGCCAGAACUACAGAAAUGUAGUUGACGAGGAGGAGGUUUAUCGAAUUUUCGGCGGAUGCGUCCAAA [C8U C68G] | 0.000619 ± 0.00023 |  |  | 0.000231 ± 5.8e-05 | 
5 | AUAAAGGCGCCAGAACUACAGAAAUGUAGUUGACGAGGAGGAGGUUUAUCGAAUUAUCGGCGGACGCCUCCAAA [A6G U56A U65C] | < 1e-05 |  |  |  | 
6 | AUAAAAGCGCCAGGACUACAUAAAUGUAGUUGACGAGGAGGAGGUUUAUCGAAUUUUCGGCGGAUGUCUCCAAA [A14G G21U C67U] | 0.000937 ± 0.00021 |  |  |  | 
7 | AUAAAAGCGCCUGAACUACAGAAAUGUAGUUGACGAGGAGGAGGUUUAUGGAAUUUUCUGCGGAUGCCCCCAAA [A12U C50G G59U U69C] | 0.000143 ± 4.1e-05 |  |  | 0.000187 ± 4.7e-05 | 8.19e-05 ± 3e-05
8 | AUAAAAGCGCCAGAACUACAGAAAUGUAGUUGACGAGGAGGAGGUUUAUCGAAUUUUCGGCGAAUGCCUCCAAA [G63A] | < 1e-05 |  | < 1e-05 | < 1e-05 | 
9 | AUAAAAGCGCCAGAACUACAGAAAUGUAGUUGACGAGGAGAAGGUUUAUCGAAUUUUCGGCGGCUGCCUCCAAA [G41A A64C] | < 1e-05 | < 1e-05 | < 1e-05 | < 1e-05 | < 1e-05
10 | AUAAAAGCGCCAGAACUACAGAAAUGUAGUUGACGGGGAGGGGGUUUAUCGGAUUUUCGGCGGAUGCCUCCAAA [A36G A42G A52G] | < 1e-05 |  | < 1e-05 |  | < 1e-05
11 | AUAAAAGCGCCAGAACUACAGAAAUGUAGCUGACGAGGAGGAGGUUUAUCGAAUUUUCCGCGGAUGCCUCCAAA [U30C G59C] | < 1e-05 |  | < 1e-05 | < 1e-05 | < 1e-05
12 | AUAAAAGAGCCAGAACUACAGAAAUGUAGUUGACGAGGAGGAGGUUUAUCGAAUUUUCGGCGGAUGGGUCCAAA [C8A C67G C68G] | 5.09e-05 ± 1.9e-05 |  | 0.000231 ± 5.6e-05 | 4.91e-05 ± 1.2e-05 | 
13 | AUAAAAGCGCCAGAACUACAGAAAUGUAGUUGACGAGGAGGUGGUUUAUCGCAUUUUCGGCGGAUGCCUCCAAA [A42U A52C] | < 1e-05 | < 1e-05 | < 1e-05 |  | < 1e-05
